B1: CIP2A(331-560) (domain or fragment)
chain: not shown
B2: GST-CIP2A(1-330) (domain or fragment)
chain: not shown
B3: CIP2A(1-330), prey of the GST pull-down (domain or fragment)
chain: not shown

Legend:
CIP2A(1-560)-V5 = CIP2A(1-560)-V5 (human, UniProt Q8TCG1 1-560); test: pull-down
GST-CIP2A(1-330) = biological target: B2; test: pull-down

binding result (CIP2A(1-560)-V5) | binding result (GST-CIP2A(1-330)) | Binder
binds |  | B1
binds |  | B2
 | binds | B3

— doi:10.1101/2025.10.13.682046 (bioRxiv, 2025)
